Measured values taken from US6790831B2, “Systemic carnitine deficiency gene and use thereof” (Chugai Seiyaku Kabushiki Kaisha, priority 1998, dated 2004).
Entries after “also recorded” stand apart in the source; their conditions may differ.

System: HEK293 cells
Assay: carnitine transporting activity assay of mouse OCTN2 expressed from plasmid DNA in HEK293 cells
Format: cell-based
Conditions: plasmid DNA expressing the protein introduced into HEK293 cells; Mock = cDNA-non-containing vector; FIG. 3
Method: Another embodiment of the therapeutic drug for systemic carnitine deficiency uses a compound that enhances the activity of the OCTN2 protein as the active ingredient. Such a compound can be screened as follows. For example, a plasmid expressing the OCTN2 protein is constructed, and this is introduced into HEK293 cells by the calcium phosphate method. Radiolabeled carnitine and a test compound are added to this transformant and the carnitine transporting activity into the cells is determined. A compound that can enhance the carnitine transporting activity is selected by comparing with the activity of the OCTN2 protein in the absence of the test compound. See Japanese Patent Application Hei 9-260972 and Hei 10-156660 for the detailed method.
Next, the effect this mutation has on the carnitine transporting activity was examined. Plasmid DNA expressing wild-type mouse OCTN2, and those expressing mutated OCTN2 were separately introduced into HEK293 cells, and then, carnitine transporting ability was measured similar to the assay of human OCTN2 described in Japanese Patent Application Hei 10-156660 (FIG. 3). […] However, both proteins were confirmed to be expressed at a similar amount by a western blotting using an antibody against the c-myc epitope sequence (NH2—EQKLISEEDL—COOH; SEQ ID NO:26) added to the C terminus (FIG. 4).

Molecule	carnitine transporting activity
wild-type mouse OCTN2: mouse OCTN2 protein, amino acid sequence SEQ ID NO:3, sodium-ion dependent carnitine transporter (protein) MRDYDEVTAFLGEWGPFQRLIFFLLSASIIPNGFNGMSIVFLAGTPEHRCLVPHTVNLSSAWRNHSIPLETKDGRQVPQKCRRYRLATIANFSELGLEPGRDVDLEQLEQESCLDGWEYDKDVFLSTIVTEWDLVCKDDWKAPLTTSLFFVGVLMGSFISGQLSDRFGRKNVLFLTMGMQTGFSFLQVFSVNFEMFTVLFVLVGMGQISNYVAAFVLGTEILSKSIRIIFATLGVCIFYAFGFMVLPLFAYFIRDWRMLLLALTVPGVLCGALWWFIPESPRWLISQGRIKEAEVIIRKAAKINGIVAPSTIFDPSELQDLNSTKPQLHHIYDLIRTRNIRVITIMSIILWLTISVGYFGLSLDTPNLHGDIYVNCFLLAAVEVPAYVLAWLLLQYLPRRYSISAALFLGGSVLLFMQLVPSELFYLSTALVMVGKFGITSAYSMVYVYTAELYPTVVRNMGVGVSSTASRLGSILSPYFVYLGAYDRFLPYILMGSLTILTAILTLFFPESFGVPLPDTIDQMLRVKGIKQWQIQSQTRMQKDGEESPTVLKSTAF	sodium-dependent carnitine transporting activity is seen; also recorded: shows a carnitine transporting activity similar to human OCTN2
mutated OCTN2: jvs mouse OCTN2 in which the 352nd leucine (CTG) is mutated to arginine (CGG) (protein, UniProt Q9Z0E8 1-557, looked up, variant L352R, full-length) MRDYDEVTAFLGEWGPFQRLIFFLLSASIIPNGFNGMSIVFLAGTPEHRCLVPHTVNLSSAWRNHSIPLETKDGRQVPQKCRRYRLATIANFSELGLEPGRDVDLEQLEQESCLDGWEYDKDVFLSTIVTEWDLVCKDDWKAPLTTSLFFVGVLMGSFISGQLSDRFGRKNVLFLTMGMQTGFSFLQVFSVNFEMFTVLFVLVGMGQISNYVAAFVLGTEILSKSIRIIFATLGVCIFYAFGFMVLPLFAYFIRDWRMLLLALTVPGVLCGALWWFIPESPRWLISQGRIKEAEVIIRKAAKINGIVAPSTIFDPSELQDLNSTKPQLHHIYDLIRTRNIRVITIMSIILWRTISVGYFGLSLDTPNLHGDIYVNCFLLAAVEVPAYVLAWLLLQYLPRRYSISAALFLGGSVLLFMQLVPSELFYLSTALVMVGKFGITSAYSMVYVYTAELYPTVVRNMGVGVSSTASRLGSILSPYFVYLGAYDRFLPYILMGSLTILTAILTLFFPESFGVPLPDTIDQMLRVKGIKQWQIQSQTRMQKDGEESPTVLKSTAF	absolutely no activity
